The subject of one data set is MCF7. As to the kind of experiment: percentage of EdU-negative (G0-arrested) nuclei per well, 72 h; higher = more G0 arrest. The note with it: reference: sequence is the full UniProt precursor, the tested protein was the secreted form or ectodomain.
The subject of the next data set is hTERT-HMEC. Described as above. Particulars: reference: sequence is the full UniProt precursor, the tested protein was the secreted form or ectodomain.
Where [1] appears, read: protein concentration 0.0225 µM.
[2] abbreviates: protein concentration 0.0270475 µM.
[3] abbreviates: protein concentration 0.270475 µM.
Where [4] appears, read: protein concentration 0.03125 µM.
Where [5] appears, read: protein concentration 0.3125 µM.

± gives the standard deviation of the averaged measurements.
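Note: secreted proteins added to cultured cells, EdU pulse at the end, nuclei found by Hoechst imaging, EdU status from nuclear versus surrounding ring intensity ratio, PBS as neutral control.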

Consider “MMLHSALGLCLLLVTVSSNLAIAIKKEKRPPQTLSRGWGDDITWVQTYEEGLFYAQKSKKPLMVIHHLEDCQYSQALKKVFAQNEEIQEMAQNKFIMLNLMHETTDKNLSPDGQYVPRIMFVDPSLTVRADIAGRYSNRLYTYEPRDLPLLIENMKKALRLIQSEL [Q8TD06]”, for which the “percentage of EdU-negative” value stood at 26.1 ± 2.8% with MCF7 (setting [1]), 24.6 ± 0.5% with MCF7 (protein concentration 0.225 µM), 5.91 ± 1.9% in the data set on hTERT-HMEC (setting [1]) and 6.43 ± 1.1% in the data set on hTERT-HMEC (protein concentration 0.225 µM).
With “MPRCRWLSLILLTIPLALVARKDPKKNETGVLRKLKPVNASNANVKQCLWFAMQEYNKESEDKYVFLVVKTLQAQLQVTNLLEYLIDVEIARSDCRKPLSTNEICAIQENSKLKRKLSCSFLVGALPWNGEFTVMEKKCEDA”, the “percentage of EdU-negative” value with MCF7 (setting [1]) is 27.2 ± 1.2%; in the data set with MCF7 (protein concentration 0.225 µM), 25.6 ± 1.6%; in the data set with hTERT-HMEC (setting [1]), 5.21 ± 1.2%; in the data set on hTERT-HMEC (protein concentration 0.225 µM), 4.56 ± 0.34%.
Consider “MAQTSSYFMLISCLMFLSQSQGQEAQTELPQARISCPEGTNAYRSYCYYFNEDRETWVDADLYCQNMNSGNLVSVLTQAEGAFVASLIKESGTDDFNVWIGLHDPKKNRRWHWSSGSLVSYKSWGIGAPSSVNPGYCVSLTSSTGFQKWKDVPCEDKFSFVCKFKN”, for which the “percentage of EdU-negative” value in the data set with MCF7 (setting [2]) is 25 ± 1.8%; in the data set on MCF7 (setting [3]), 23.9 ± 0.49%; with hTERT-HMEC (setting [2]), 6.23 ± 0.99%; in the data set on hTERT-HMEC (setting [3]), 6.73 ± 0.84%.
For the sequence “MTVLAPAWSPTTYLLLLLLLSSGLSGTQDCSFQHSPISSDFAVKIRELSDYLLQDYPVTVASNLQDEELCGGLWRLVLAQRWMERLKTVAGSKMQGLLERVNTEIHFVTKCAFQPPPSCLRFVQTNISRLLQETSEQLVALKPWITRQNFSRCLELQCQPDSSTLPPPWSPRPLEATAPTAPQPPLLLLLLLPVGLLLLAAAWCLHWQRTRRRTPRPGEQVPPVPSPQDLLLVEH”, the “percentage of EdU-negative” value is 25 ± 0.85% in the data set on MCF7 (setting [1]), 25.7 ± 0.9% in the data set with MCF7 (protein concentration 0.225 µM), 5 ± 0.57% with hTERT-HMEC (setting [1]) and 5.47 ± 0.61% in the data set on hTERT-HMEC (protein concentration 0.225 µM).
In the case of “MSLSFLLLLFFSHLILSAWAHGEKRLAPKGQPGPAATDRNPRGSSSRQSSSSAMSSSSASSSPAASLGSQGSGLEQSSFQWSPSGRRTGSLYCRVGIGFHLQIYPDGKVNGSHEANMLSVLEIFAVSQGIVGIRGVFSNKFLAMSKKGKLHASAKFTDDCKFRERFQENSYNTYASAIHRTEKTGREWYVALNKRGKAKRGCSPRVKPQHISTHFLPRFKQSEQPELSFTVTVPEKKKPPSPIKPKIPLSAPRKNTNSVKYRLKFRFG”, the “percentage of EdU-negative” value in the data set with MCF7 (setting [4]) amounted to 27.9 ± 2.3%; in the data set with MCF7 (setting [5]) it was 28 ± 0.77%; in the data set with hTERT-HMEC (setting [4]) it was 4.71 ± 0.44%; in the data set with hTERT-HMEC (setting [5]) it was 5.28 ± 0.53%.
As for “MSLMVVSMVCVGFFLLQGAWPHEGVHRKPSLLAHPGPLVKSEETVILQCWSDVRFQHFLLHREGKFKDTLHLIGEHHDGVSKANFSIGPMMQDLAGTYRCYGSVTHSPYQLSAPSDPLDIVITGLYEKPSLSAQPGPTVLAGESVTLSCSSRSSYDMYHLSREGEAHERRFSAGPKVNGTFQADFPLGPATHGGTYRCFGSFRDSPYEWSNSSDPLLVSVTGNPSNSWPSPTEPSSETGNPRHLHVLIGTSVVIILFILLLFFLLHRWCCNKKNAVVMDQEPAGNRTVNREDSDEQDPQEVTYAQLNHCVFTQRKITRPSQRPKTPPTDIIVYTELPNAEP”, the “percentage of EdU-negative” value in the data set on MCF7 (setting [1]) is 22.6 ± 0.43%; with MCF7 (protein concentration 0.225 µM), 26.6 ± 2.4%; in the data set on hTERT-HMEC (setting [1]) it was 5.55 ± 0.17%; in the data set with hTERT-HMEC (protein concentration 0.225 µM), 11.3 ± 1.1%.
For the sequence “MGAAARLSAPRALVLWAALGAAAHIGPAPDPEDWWSYKDNLQGNFVPGPPFWGLVNAAWSLCAVGKRQSPVDVELKRVLYDPFLPPLRLSTGGEKLRGTLYNTGRHVSFLPAPRPVVNVSGGPLLYSHRLSELRLLFGARDGAGSEHQINHQGFSAEVQLIHFNQELYGNFSAASRGPNGLAILSLFVNVASTSNPFLSRLLNRDTITRISYKNDAYFLQDLSLELLFPESFGFITYQGSLSTPPCSETVTWILIDRALNITSLQMHSLRLLSQNPPSQIFQSLSGNSRPLQPLAHRALRGNRDPRHPERRCRGPNYRLHVDGVPHGR”, the “percentage of EdU-negative” value in the data set on MCF7 (protein concentration 0.021 µM) came out at 25.5 ± 1.3%; in the data set with MCF7 (protein concentration 0.21 µM), 24.9 ± 0.45%; in the data set with hTERT-HMEC (protein concentration 0.021 µM), 4.83 ± 0.27%; in the data set with hTERT-HMEC (protein concentration 0.21 µM), 7.53 ± 1.3%.
